Measured values reported in doi:10.1101/2025.05.07.652675.
“And” between values parts separate entries of the source, which are not always exact repeats. Equal values may be shown once.

Target: ZapC^F30D and ZapC^K94D
Assay: BLI

Chain of FtsZ (wild type, untagged) (P0A9A6 whole entry): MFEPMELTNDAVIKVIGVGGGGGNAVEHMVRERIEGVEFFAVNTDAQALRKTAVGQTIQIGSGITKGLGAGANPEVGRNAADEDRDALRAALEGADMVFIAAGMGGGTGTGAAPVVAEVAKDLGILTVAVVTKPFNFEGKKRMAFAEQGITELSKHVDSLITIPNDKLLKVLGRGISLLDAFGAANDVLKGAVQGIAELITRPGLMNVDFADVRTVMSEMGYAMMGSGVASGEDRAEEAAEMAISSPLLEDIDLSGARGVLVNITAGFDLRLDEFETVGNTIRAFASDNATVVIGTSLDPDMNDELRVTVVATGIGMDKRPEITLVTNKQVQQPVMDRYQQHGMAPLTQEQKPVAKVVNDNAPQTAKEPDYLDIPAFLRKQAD

binding affinity relative to wild-type ZapC (times lower): 5 times and 7 times
Substance: FtsZ (wild type, untagged) (from UniProt P0A9A6 1-383) (natural protein)
